In patent publication US7847064B2, “Methods and compositions for regulating gene expression in plant cells” (Donald Danforth Plant Science Center, priority 2004, dated 2010):

Tests used:
[1] = tested on: non-transgenic BY-2 protoplasts; test: GUS activity of Box II/CaMV 35S chimeric promoters in non-transgenic BY-2 protoplasts; assay type: cell-based, tobacco; conditions: for stimulation of gene expression versus the construct without Box II: Box II at 7 nucleotides from the TATA box plus multiples of 0.5 turns of DNA helix; for increase in expression level above the construct without Box II: versus p-48CaMV and p-90CaMV respectively, normalized against GFP
From the text: Specifically, the Box II element was fused to the 5′ end of the chimeric promoters with a space of 7 nucleotides from the TATA box plus 1, 1.5, 3.0, 3.5, 5.0 and 5.5 “turns of DNA helix” (one turn=10.4 base pairs). The chimeric promoters were then inserted into a cassette with the uidA coding sequencing and Nos terminator.
Construction of Plasmids Comprising the Box II Element and Different Lengths of the CaMV 35S Promoter—To construct Box II and CaMV 35S chimeric promoters, the Box II element was introduced into CaMV 35S promoter sequences of different lengths through PCR reactions using Pfu DNA polymerase (Stratagen Systems, Kirkland, Wis.). Forward primers for the PCR reactions were designed to have a HindIII restriction site, followed by the Box II sequence, which was followed by part of the 5′ CaMV promoter at desired positions (see FIG. 12 and Table 2 for specific primer sequences). The GUS 3′ primer (SEQ ID NO:36) was used as reverse primer for all reactions.
The p35S:GUS plasmid was used as template in the foregoing reactions. In the p35S:GUS plasmid, a NcoI restriction site was located between the CaMV 35S promoter and the GUS coding sequence. Thus, a NcoI site was present in all PCR products. The PCR products were restricted with HindIII/NcoI and cloned into a pE:GUS vector to replace the E promoter through the same set of restriction sites. The constructed plasmids containing the chimeric promoters labeled 1 through 6 in Table 2 were named p-1.0hBoxII−48CaMV:GUS, p-1.5hBoxII−53CaMV:GUS, p-3.0hBoxII−69CaMV:GUS, p-3.5hBoxII−74CaMV, p-5.0hBoxII−90CaMV:GUS, and p-5.5hBoxII−95CaMV:GUS, respectively. The controls for this set of plasmids were generated using primer sets 1.5h-53CaMV-c (SEQ ID NO:43)/GUS3′; −3.5h-74CaMV-c (SEQ ID NO:44)/GUS3′ and −5.5h-95CaMV-c (SEQ ID NO:45)/GUS3′, which products were cloned into pE:GUS with HindIII/NcoI to replace the E promoter. The derived plasmids/constructs were named p-53CaMV:GUS, p-74CaMV:GUS and p-95CaMV:GUS, respectively.
The foregoing constructs were then transfected into non-transgenic BY-2 protoplasts, and the resulting GUS activity determined.

Box IIm1 element = test: Electrophoretic mobility shift assay; assay type: binding; conditions: 100 ng purified protein, 32P-labeled Box IIm1 DNA probe
Method: The purified mutant proteins were then analyzed by SDS-PAGE to confirm that each protein was its expected size (FIG. 16(B)). To confirm that each of the mutant proteins bind to the DNA target, i.e., the Box II element and/or its operational derivatives, gel mobility shift assays were carried out with the purified recombinant proteins (FIG. 16(C)). The electrophoretic mobility shift assays were carried out essentially as described in Yin and Beachy (1995). 100 ng of proteins purified from the transformed E. coli were incubated with ^32P-labeled Box IIm1 DNA probe followed by electrophoresis in a 5% acrylamide gel (Yin et al., 1997) (FIG. 16(C)).

[2] = tested on: Nicotiana tabacum cv. Xanthi NN; test: Phenotype of transgenic tobacco plants overexpressing RF2a or RF2a mutants; assay type: in vivo; conditions: CaMV 35S promoter driven, T1 generation, greenhouse
From the text: (Yin et al., 1997; Petruccelli et al., 2001). […] Fifteen or more independent transgenic tobacco lines were developed with the constructs described below through Agrobacterium-mediated transformation.
Plasmids for Agrobacterium-mediated transformation—The fusion genes described above relating to the plant expression constructs comprising RF2a deletion mutants were released from pMON999-derived plasmids using NotI (blunted) and cloned into the binary vector pGA-E::GUS (Petruccelli et al., 2001) using the blunt HindIII site (downstream of a CaMV 35S promoter sequence). The final plasmids were named pGA-E::GUS/P-35S::ΔP, pGA-E::GUS/P-35S::ΔQ, pGA-E::GUS/P-35S::ΔPΔA and pGA-E::GUS/P-35S::ΔPΔQ. A plasmid encoding full-length RF2a, p35S::RF2a, was also constructed using the methods described herein.
Tobacco transformation—the plasmids described above were introduced into Agrobacterium tumefaciens strain LBA4404 and used for tobacco transformation. Leaf discs from Nicotiana tabacum cv. Xanthi NN were transformed with the various plasmids following the protocol of Horsch et al. (1988). At least 15 independent transgenic lines were produced with each gene construct. Transgenic plants were self-fertilized, and T1 seeds were collected. The T1 seeds were germinated on Murashige and Skoog medium (Murashige and Skoog, 1962) with kanamycin (100 mg/L) selection, and Kan^r seedlings were grown in a greenhouse for observation.
The phenotype caused by 35S::RF2a-ΔPΔA was similar to, but less severe than, the phenotype caused by 35S::RF2a-3Δ. […] (FIG. 19(C)).

pBII-48Ca::GUS = test: Transactivation of pBII-48Ca::GUS by RF2a and RF2a mutants in BY-2 protoplasts; assay type: cell-based, tobacco; conditions: co-transfected with pBII-48Ca::GUS, 24 hours after electroporation, normalized with GFP
Method: The relative activity of RF2a and the RF2a mutants (described in Example 8) was then measured. First, a chimeric promoter was developed with a single copy of the Box II element fused to the 5′ end of a minimal CaMV 35S promoter comprising nucleotides −48 to +8 (SEQ ID NO:66). The chimeric promoter was ligated to the uidA coding sequence to create the reporter pBII-48Ca::GUS.
To analyze the function of the several domains of RF2a, effectors were created by inserting coding sequences of RF2a or the mutants of RF2a (described in Example 8) downstream of the enhanced CaMV 35S promoter in the pMON999 vector (a gift from Monsanto Company, St. Louis, Mo.). The resultant constructs, p35S::RF2a, p35S::RF2a-ΔP, p35S::RF2a-ΔQ, p35S::RF2a-ΔPΔA, p35S::RF2a-ΔPΔQ and p35S::RF2a-3Δ, were co-transfected into BY-2 protoplasts with pBII-48Ca::GUS (FIG. 17(A)). Plasmid pCat-GFP, in which the GFP gene was driven by CaMV 35S promoter, was co-introduced to serve as an internal control. The following describes, in greater detail, the construction of these vectors and the methods employed in transfecting the same into BY-2 protoplasts.
Plasmids for protoplast transfection—The coding sequences for mutants of RF2a were released from pET28a-derived plasmids and cloned into the plant expression vector pMON999 (a gift from Monsanto Company, St. Louis, Mo.) to place each gene downstream of an enhanced CaMV 35S promoter, followed by a nopaline synthase terminator sequence. The resulting effector constructs were named p35S::RF2a, p35S::RF2a-ΔP, p35S::RF2a-ΔQ, p35S::RF2a-ΔPΔA, p35S::RF2a-ΔPΔQ and p35S::RF2a-3Δ. The reporter gene construct, pBII-48Ca::GUS, was built using PCR to introduce the Box II element into a minimal CaMV 35S promoter comprising nucleotides −48 to +8 with primers BII-48Ca 5′ (SEQ ID NO:53) (which contained the Box II element) and GUS 3′ (SEQ ID NO:36) using a p35S:GUS plasmid as template. The PCR product was restricted with HindIII and NcoI, and the resulting fragment was inserted into p35S::GUS to replace the original 35S promoter.
Transfection of tobacco BY-2 protoplasts—The protoplasts were isolated from tobacco cell line BY-2 as described by Watanabe et al. (1987). Approximately one million protoplasts were transfected by electroporation with 20 μg of effector construct DNA, 15 μg of herring sperm DNA, 2.5 μg of reporter gene construct DNA, and 15 μg of pCat-GFP DNA. In samples with reporter gene alone, the total amount of DNA was adjusted by adding 20 μg of herring sperm carrier DNA. The electroporation parameters used were 300 V and 250 microfarads with the Bio-Rad electroporation system (Bio-Rad Laboratories, Hercules, Calif.). Protoplast samples were cultured in Murashige and Skoog medium with 0.4 M mannitol, pH 5.8, at 28° C. The protoplasts were collected 24 hours after electroporation.

**Q.** How did the “stimulation of gene expression versus the construct without Box II” value [1] turn out when “p-5.5hBox II−95CaMV: Box II fused to CaMV 35S promoter, 7 nucleotides from TATA box plus 5.5 turns (DNA TGATCAAAGCTTCCAGTGTGCCCCTGGGTGATATCTCCACTGAC; listed as DNA, chemistry not given here)” was run?
**A.** much less or no stimulation of gene expression

**Q.** With “p-1.5hBox II−53CaMV: Box II fused to CaMV 35S promoter, 7 nucleotides from TATA box plus 1.5 turns (DNA TGATCAAAGCTTCCAGTGTGCCCCTGGATCCTTCGCAAGACCCT; listed as DNA, chemistry not given here)” as the molecule, how does the “stimulation of gene expression versus the construct without Box II” value [1] read?
**A.** much less or no stimulation of gene expression

**Q.** For “p5.0hBoxII−90CaMV: Box II fused to CaMV 35S promoter, 7 nucleotides from TATA box plus 5.0 turns (DNA TGATCAAAGCTTCCAGTGTGCCCCTGGATCTCCACTGACGTAAG; listed as DNA, chemistry not given here)”, which “increase in expression level above the construct without Box II” value [1] is on record?
**A.** 4.7 fold

**Q.** With “p1.0hBoxII−48CaMV: Box II fused to CaMV 35S promoter, 7 nucleotides from TATA box plus 1 turn of DNA helix (DNA TGATCAAAGCTTCCAGTGTGCCCCTGGTCGCAAGACCCTTCCTC; listed as DNA, chemistry not given here)” as the molecule, how does the “increase in expression level above the construct without Box II” value [1] read?
**A.** 6.9 fold

**Q.** How did the “stimulation of gene expression versus the construct without Box II” value [1] turn out when “p-3.5hBox II−74CaMV: Box II fused to CaMV 35S promoter, 7 nucleotides from TATA box plus 3.5 turns (DNA TGATCAAAGCTTCCAGTGTGCCCCTGGGGGATGACGCACAATCC; listed as DNA, chemistry not given here)” was run?
**A.** much less or no stimulation of gene expression

B1: RF2a-ΔQ: RF2a mutant, glutamine-rich domain removed, SEQ ID NO:69 (protein)
chain: MNREKSPIPGDGGDGLPPQATRRAGPPAAAAAAEYDISRMPDFPTRNPGHRRAHSEILSLPEDLDLCAAGGGDGPSLSDENDEELFSMFLDVEKLNSTCGASSEAEAESSSAAAHGARPKHQHSLSMDESMSIKAEELVGASPGTEGMSSAEAKKAVSAVKLAELALVDPKRAKRIWANRQSAARSKERKMRYIAELERKVQTLQTEATTLSAQLALLQRDTSGLTTENSELKLRLQTMEQQVHLQDALNDTLKSEVQRLKVATGQMANGGGMMMNFGGMPHQ
modifications: This sequence was artificially derived and/or created by the inventors.
**Q.** With B1 as the molecule, how does the “binding in gel mobility shift assay” value (Box IIm1 element) read?
**A.** bind to the Box IIm1 element

**Q.** And the “phenotype of transgenic tobacco plants” value [2]?
**A.** did not exhibit abnormal phenotypes

**Q.** What about the “activation function (relative GUS activity)” value (pBII-48Ca::GUS) of the same molecule?
**A.** greater than that of full-length RF2a

B2: RF2a-ΔP: RF2a mutant, proline-rich domain removed, SEQ ID NO:68 (protein)
chain: MGHRRAHSEILSLPEDLDLCAAGGGDGPSLSDENDEELFSMFLDVEKLNSTCGASSEAEAESSSAAAHGARPKHQHSLSMDESMSIAEELVGASPGTEGMSSAEAKKAVSAVKLAELALVDPKRAKRIWANRQSAARSKERKMRYIAELERKVQTLQTEATTLSAQLALLQRDTSGLTTENSELKLRLQTMEQQVHLQDALNDTLKSEVQRLKVATGQMANGGGMMMNFGGMPHQFGGNQQMFQNNQAMQSMLAAHQLQQLQLHPQAQQQQVLHPQHQQQQPLHPLQAQQLQQAARDLKMKSPMGGQSQWGDGKSGSSGN
modifications: This sequence was artificially derived and/or created by the inventors.
**Q.** With B2 as the molecule, how does the “binding in gel mobility shift assay” value (Box IIm1 element) read?
**A.** bind to the Box IIm1 element

**Q.** What about the “phenotype of transgenic tobacco plants” value [2] of the same molecule?
**A.** did not exhibit abnormal phenotypes

**Q.** What about the “activation function (relative GUS activity)” value (pBII-48Ca::GUS) of the same molecule?
**A.** greater than that of full-length RF2a
